The values below come from IntAct's records for PubMed 17167421.

The labels stand for the following.
B1: Synaptotagmin-2 (Rattus norvegicus (Rat)), P29101 (parent)
chain: MRNIFKRNQEPIVAPATTTATMPLAPAAPADNSTESTGTGESQEDMFAKLKDKFFNEINKIPLPPWALIAMAVVAGLLLLTCCFCICKKCCCKKKKNKKEKGKGMKNAMNMKDMKGGQDDDDAETGLTEGEGEGEEEKEPENLGKLQFSLDYDFQANQLTVGVLQAAELPALDMGGTSDPYVKVFLLPDKKKKYETKVHRKTLNPAFNETFTFKVPYQELGGKTLVMAIYDFDRFSKHDIIGEVKVPMNTVDLGQPIEEWRDLQGGEKEEPEKLGDICTSLRYVPTAGKLTVCILEAKNLKKMDVGGLSDPYVKIHLMQNGKRLKKKKTTVKKKTLNPYFNESFSFEIPFEQIQKVQVVVTVLDYDKLGKNEAIGKIFVGSNATGTELRHWSDMLANPRRPIAQWHSLKPEEEVDALLGKNK

Variants of B1 are the subject of this experiment. The settings on record: with bxb_clobo botB.
In the case of E57K, the “effect of a mutation on the interaction” value was “disrupting interaction strength”.

F55A: the “effect of a mutation on the interaction” value is on record as “disrupting interaction strength”.

Consider L50A, for which the “effect of a mutation on the interaction” value is reported as “decreasing interaction strength”.

F54A: the “effect of a mutation on the interaction” value was “disrupting interaction strength”.

For F47A, the “effect of a mutation on the interaction” value is listed as “disrupting interaction strength”.
